Assay [1] addresses T1, murine fibroblast activation protein (FAP) (mouse, UniProt P97321 1-761).
T1 construct: whole, on cells; also called mouse FAP; muFAP
T1 sequence (looked up): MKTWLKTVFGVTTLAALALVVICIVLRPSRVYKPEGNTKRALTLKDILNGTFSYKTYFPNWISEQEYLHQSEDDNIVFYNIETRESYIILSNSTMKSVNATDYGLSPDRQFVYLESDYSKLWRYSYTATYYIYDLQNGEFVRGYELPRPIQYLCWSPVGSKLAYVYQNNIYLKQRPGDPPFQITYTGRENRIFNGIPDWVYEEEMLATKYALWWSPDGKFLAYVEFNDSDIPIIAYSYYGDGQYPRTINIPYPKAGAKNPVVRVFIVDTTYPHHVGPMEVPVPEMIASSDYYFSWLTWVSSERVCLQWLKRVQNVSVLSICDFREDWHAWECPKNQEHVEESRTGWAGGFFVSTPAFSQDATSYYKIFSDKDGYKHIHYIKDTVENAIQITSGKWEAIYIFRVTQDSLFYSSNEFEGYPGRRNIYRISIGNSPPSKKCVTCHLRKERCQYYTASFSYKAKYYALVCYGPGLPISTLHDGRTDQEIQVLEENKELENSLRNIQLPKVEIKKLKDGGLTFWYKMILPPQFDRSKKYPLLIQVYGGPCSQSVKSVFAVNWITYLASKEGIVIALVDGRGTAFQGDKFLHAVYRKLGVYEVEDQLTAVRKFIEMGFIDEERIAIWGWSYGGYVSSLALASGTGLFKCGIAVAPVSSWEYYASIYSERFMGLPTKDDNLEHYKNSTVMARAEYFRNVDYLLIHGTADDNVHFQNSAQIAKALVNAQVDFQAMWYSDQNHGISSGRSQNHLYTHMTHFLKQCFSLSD
The assay can be described thus: flow cytometry, hybridoma supernatant on BALB/c 3T3 cells with a murine FAP transgene. As for the experimental part:
(§1) BALB/c 3T3 cells expressing full-length canine FAP were used to immunize 14 week old BALB/c.FAP^{-/-} mice. All injections were given intraperitoneally and consisted of 1×10⁷ cells in 0.5 ml sterile PBS. An initial immunization was followed by boosts on days 14 and 28; animals were then bled on day 42 followed a boost on day 56, bleeding on day 63, and three more boosts on days 70, 217, and 238. On day 241, […] spleens were harvested, a single cell suspension prepared, and splenocytes fused with sp2/0 cells by the UPENN Hybridoma Core Facility. Hybridoma supernatant were initially screened by FACS on MC KOSA parental (FAP null) vs. canine FAP-transgene expressing MC KOSA.K9FAP using hybridoma supernatants as the primary antibodies and AF488 goat anti-mouse IgG as a secondary. Clone 4G5 was identified as reactive to transduced cells but not parental cells and screened on additional cells to confirm reactivity with FAP expressing but not FAP-negative cells: Human primary fibroblasts, BALB/c 3T3 expressing murine or human FAP transgenes, canine primary fibroblasts, SK KOSA (FAP expressing), and BALB/c 3T3 (FAP negative) cells. 4G5 was then determined to be an IgG1k isotype antibody using Thermo Fisher Rapid ELISA Mouse mAb Isotyping Kit #37503.
(§2) BALB/c 3T3 fibroblast cells transduced to express full-length canine FAP were used to immunize 14 week old BALB/c FAP^{-/-} mice. […]
On the technique in general: Flow cytometry measures light scatter and fluorescence of single cells or particles in a stream.

Assay [2] deals with T2, human fibroblast activation protein (FAP) (human, UniProt Q12884 1-760).
T2 construct: whole, on cells; also called human FAP; huFAP
T2 sequence (looked up): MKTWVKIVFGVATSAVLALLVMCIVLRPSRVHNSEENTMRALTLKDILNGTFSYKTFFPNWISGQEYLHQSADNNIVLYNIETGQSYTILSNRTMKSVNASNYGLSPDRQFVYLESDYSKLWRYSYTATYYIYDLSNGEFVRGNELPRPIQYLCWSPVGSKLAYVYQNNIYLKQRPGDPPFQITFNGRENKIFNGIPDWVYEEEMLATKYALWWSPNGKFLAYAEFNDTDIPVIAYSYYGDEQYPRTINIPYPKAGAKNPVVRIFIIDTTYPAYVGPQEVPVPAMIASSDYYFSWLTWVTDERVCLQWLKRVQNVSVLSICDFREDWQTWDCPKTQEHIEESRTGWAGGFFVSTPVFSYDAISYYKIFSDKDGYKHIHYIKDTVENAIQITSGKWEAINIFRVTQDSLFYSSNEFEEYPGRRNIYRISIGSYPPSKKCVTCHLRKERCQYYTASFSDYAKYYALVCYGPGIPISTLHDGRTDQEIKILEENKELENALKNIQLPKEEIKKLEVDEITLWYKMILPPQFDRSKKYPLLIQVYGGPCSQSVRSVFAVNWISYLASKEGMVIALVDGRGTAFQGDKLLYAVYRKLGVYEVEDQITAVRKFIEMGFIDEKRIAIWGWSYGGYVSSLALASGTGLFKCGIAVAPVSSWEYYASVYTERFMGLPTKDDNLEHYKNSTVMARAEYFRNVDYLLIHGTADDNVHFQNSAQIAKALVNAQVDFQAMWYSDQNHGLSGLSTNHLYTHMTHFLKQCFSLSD
The assay can be described thus: flow cytometry, hybridoma supernatant on human primary fibroblasts and BALB/c 3T3 cells with a human FAP transgene. On the procedure: as §1, §2

These results are taken from patent publication US20210087295A1 (University of Pennsylvania, published 2021).

B1: clone 4G5 anti-FAP antibody (antibody, mouse IgG1, V domains shown)
VH: QVQLQQPGAELVKPGASVKLSCKASGYTITSYSLHWVKQRPGQGLEWIGEINPANGDHNFSEKFEIKATLTVDSSSNTAFMQLSRLTSEDSAVYYCTRLDDSRFHWYFDVWGAGTTVTVSS
VL: QIVLTQSPALMSASPGEKVTMTCTASSSVSYMYWYQQKPRSSPKPWIFLTSNLASGVPARFSGRGSGTSFSLTISSMEAEDAATYYCQQWSGYPPITFGSGTKLEIK
notes: Mouse IgG1 kappa antibody from a hybridoma, used as hybridoma supernatant in flow cytometry; also called 4G5 immunoglobulin; monoclonal 4G5 antibody
Consider B1, for which the binding result in assay [1] and in assay [2] was “binds” each time.
